Target: yeast APC (anaphase promoting complex of Schizosaccharomyces pombe)
Test: cell-based or functional assay

growth (optical density) of S. pombe nuc2ts at restrictive temperature, HBT cDNA against empty vector control: 4 fold
Substance: HOBBIT (HBT) protein of Arabidopsis thaliana (from UniProt Q8LGU6 1-744)
